Test results reported in the supplement of paper PMC10567573.
± gives the standard deviation.

Experiment: protein stability index of a GFP-peptide fusion (GPS, HEK-293T) (PSI 1-6); higher = more stable
[1] = treatment: DMSO, c terminus: native
[2] = treatment: MLN4924 1 uM, 8 h, c terminus: native
[3] = treatment: DMSO, c terminus: a fixed tail appended
[4] = treatment: MLN4924 1 uM, 8 h, c terminus: a fixed tail appended
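Further: 24-mer peptide tiles fused after GFP, lentivirally expressed, FACS-sorted into six equal bins by GFP/DsRed ratio, decoded by Illumina sequencing, PSI is the read-weighted mean bin number.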

Row | Sequence | protein stability index [1] | protein stability index [2] | protein stability index [3] | protein stability index [4]
1 | AAAHASVDIKDVLDFYKQWKEIG [SMG5] | 3.45 ± 0.3 | 3.54 ± 0.55 | – | –
2 | AADGETTATEELEKTQDDLMKHQT [EPB41L3] | – | – | 5.62 ± 0.14 | 5.64 ± 0.14
3 | AAEERALFTDRMATRSTTQSNRTS [WEE1] | – | – | 5.1 ± 0.2 | 5.17 ± 0.21
4 | AAEMYQRGRAVLREAGFHQYEVSN [RSAD1] | – | – | 3.32 ± 0.3 | 3.29 ± 0.24
5 | AAKARDTGILIFAIGVGQVDFNTL [MATN2] | – | – | 2.58 ± 1.1 | 3.16 ± 1
6 | AAPFRFVARPVRFPREHQFFEDGD [ZNF511] | – | – | 2.85 ± 0.56 | 3.28 ± 0.62
7 | AARLLRALSSFREESRFCDAHLVL [GAN] | – | – | 2.41 ± 0.65 | 2.02 ± 0.27
8 | AATKQEGMEGLLGTLVQLLGSDDI [CTNNB1] | – | – | 2.63 ± 0.23 | 2.71 ± 0.58
9 | ACRVTELQQQPLCTSVNTIYDNAV [LRRC59] | – | – | 2.68 ± 0.4 | 2.61 ± 0.25
10 | ACSAWLCPGLRLPGSLAGRRAGPA [AUH] | – | – | 2.2 ± 0.31 | 2.04 ± 0.9
11 | ADAFHHQVHDDDLLSSSEEECKDR [EMD] | – | – | 5.66 ± 0.14 | 5.66 ± 0.17
12 | ADYSAALDPAYTTLEFENVQVLTM [HNF4A] | – | – | 2.75 ± 0.25 | 2.39 ± 0.32
13 | AEEAEDHGRIPDPDDFVPPVPPPS [FAM189A2] | – | – | 5.52 ± 0.24 | 5.51 ± 0.06
14 | AEFIESGQYRANEGTSSIVMEIQK [TAF7L] | – | – | 4.23 ± 0.24 | 4.45 ± 0.32
15 | AEGDSEGLSQGLVDREKGLSAEPG [CHGA] | – | – | 5.49 ± 0.23 | 5.49 ± 0.4
16 | AEMSRVSIRILDELVLPFQELQID [HNF4A] | – | – | 2.67 ± 0.35 | 2.74 ± 0.23
17 | AERLRAELLDLKAGGFSIRNQKGE [MYORG] | – | – | 4.1 ± 0.26 | 4.24 ± 0.29
18 | AEVWVSGTIFIRNVLLFKKQNPGK [RETREG3] | – | – | 2.68 ± 0.54 | 2.49 ± 0.35
19 | AFVVYLETETLVTREAVTEILGIE [TSN] | – | – | 2.58 ± 0.6 | 2.52 ± 0.7
20 | AGDRFLEALGFSWHDTCFVCAICQ [PDLIM7] | – | – | 2.32 ± 0.4 | 2.52 ± 0.28
21 | AGEDNDDLIDNLKEAQYIRTERVE [PCMTD1] | – | – | 5.08 ± 0.18 | 5.15 ± 0.26
22 | AGFSPDCIMDDAINILQNEKSHQV [INTS4] | – | – | 4.13 ± 0.12 | 4.17 ± 0.18
23 | AGSCRLGSAGGLGSTLGGSSYSSC [KRT17] | – | – | 2.22 ± 0.3 | 2.27 ± 0.31

Row | Sequence | protein stability index [1] | protein stability index [2] | protein stability index [3] | protein stability index [4]
24 | AGVLTIALPVPVIVSNFNYFYHRE [KCNA4] | – | – | 2.6 ± 0.21 | 2.84 ± 0.79
25 | AIGGTYLGPAFRGLKGRTLYPAVS [SPSB2] | – | – | 2.51 ± 0.16 | 2.69 ± 0.19
26 | AIVRKCRQKGTGKEYAAKFIKKRR [DAPK3] | – | – | 3.45 ± 0.24 | 3.81 ± 0.32
27 | AIVSCTPVHLIDKLPLPVTIKSHL [RAB40C] | – | – | 2.18 ± 0.24 | 2.08 ± 0.19
28 | AKRLLDADDAAAVAAKCPRLSECS [TRIB1] | – | – | 4 ± 0.51 | 4.11 ± 0.42
29 | AKTFHLVNPNGQKQQLVDAFLKLA [FAN1] | – | – | 2 ± 0.36 | 2.05 ± 0.17
30 | ALGNLVEGMDFHRFYFENLLAKNS [CAMK2B] | – | – | 2.19 ± 0.24 | 2.35 ± 0.079
31 | ALLNDHIYVVGGFDGTAHLSSVEA [KLHL12] | – | – | 2.68 ± 0.32 | 3 ± 0.38
32 | ALRAQRASSNVFSNFEQTQIQEFK [MYL5] | – | – | 4.07 ± 0.27 | 3.93 ± 0.23
33 | ALREENRMLSKENKILQVFWEEHK [CBY2] | – | – | 3.19 ± 0.12 | 3.28 ± 0.3
34 | AMAIINGSLYVFGGTTGYIYSTDL [KLHDC10] | – | – | 3.16 ± 0.2 | 2.74 ± 0.33
35 | ANAEDAQEFSDVERAIETLIKNFH [S100A14] | – | – | 3.39 ± 0.43 | 3.94 ± 0.74
36 | APAGDKGFQPPSPSLRPRPASSIS [DMRTC1] | – | – | 4.61 ± 0.15 | 4.57 ± 0.26
37 | AQNDLDISRIKRGNTTLESTDTL [P2RY14] | 5.26 ± 0.17 | 5.25 ± 0.22 | – | –
38 | AQTLHHKSCYNGRFQLLYVACGMV [DNAAF3] | – | – | 2.94 ± 0.63 | 2.39 ± 0.72
39 | ARKGKGAFCNGQKLQVSQQEDITK [IMPA1] | – | – | 4.46 ± 0.18 | 4.67 ± 0.18
40 | ARPWTRDSASLPRKPSVPWQRQMD [RASAL3] | – | – | 2.73 ± 0.22 | 2.94 ± 0.42
41 | ARSRALRRRWCPAGIMLLALVCLL [SPACA3] | – | – | 2.23 ± 0.29 | 2.23 ± 0.19
42 | ASAPTTPCQKSPNGVRVFPPAMPP [TRIM9] | – | – | 4.14 ± 0.25 | 4.2 ± 0.17
43 | ASGSFPSQVTATSGNGDFGDWSAF [CLINT1] | – | – | 3.4 ± 0.23 | 3.87 ± 0.12
44 | ASSSRSVRTTRGKRKRVDVEESEA [LMNB1] | – | – | 5.22 ± 0.39 | 5.49 ± 0.29
45 | ATIHGAIRLVCSRGNRLKTTSWGL [SCNN1D] | – | – | 2.46 ± 0.7 | 2.18 ± 0.24
46 | AVKKFVESEDDPVVKKIALREIRM [CDKL4] | – | – | 2.52 ± 0.25 | 2.98 ± 0.26

Row | Sequence | protein stability index [1] | protein stability index [2] | protein stability index [3] | protein stability index [4]
47 | AVNSGGPLESIDHSVTGFLCEPDP [ALG2] | – | – | 4.82 ± 0.21 | 4.91 ± 0.22
48 | AVPHPPPSTPIKLEEGDGCAREYL [ADD1] | – | – | 4.16 ± 0.35 | 4.42 ± 0.23
49 | AWLNYPCFKNWDGSPVSSWILLAE [OAS1] | – | – | 2.58 ± 0.34 | 2.3 ± 0.23
50 | AYDFPSPEWDTVTPEAKDLINKML [CAMK2A] | – | – | 3.24 ± 0.24 | 3.58 ± 0.34
51 | AYPLELQGQPDPAPRPGPPAGTPP [MOSPD3] | – | – | 5.14 ± 0.23 | 5.01 ± 0.14
52 | AYQHSGHLESKDINQEELRALEEV [C10orf62] | – | – | 5.41 ± 0.29 | 5.4 ± 0.17
53 | CAKLDSCALGDHGCEHSCVSSEDS [MATN2] | – | – | 4.91 ± 0.35 | 4.99 ± 0.38
54 | CDELELHQRFLREGRFWKSKNEDR [ZMYND11] | – | – | 4.29 ± 0.17 | 4.31 ± 0.36
55 | CDWLRATGFPQYAQLYEDFLFPID [DLC1] | – | – | 2.31 ± 0.45 | 2.26 ± 0.24
56 | CEVPTCSLCKVFGAHKDCQVAPLT [TRIM55] | – | – | 3.58 ± 0.2 | 3.7 ± 0.25
57 | CFEASDCKESSPMPVICGPEENYP [NANOGP8] | – | – | 3.98 ± 0.32 | 4.24 ± 0.26
58 | CGSKACRRLFGPVDSEQLRRDCDA [CDKN1A] | – | – | 3.18 ± 0.2 | 3.23 ± 0.093
59 | CIPATVRSSFANQGEICLCTSRIF [ALDH8A1] | – | – | 2.28 ± 0.52 | 2.38 ± 0.21
60 | CLKVGMRREAVQRGRMPPTQPTHG [NR2F2] | – | – | 3.59 ± 0.27 | 3.71 ± 0.32
61 | CLRCWDQRTIMKPLEYQFKSQIMS [TLE6] | – | – | 2.14 ± 0.27 | 2.47 ± 0.48
62 | CPSSPKQIHLDVDNDRTTPSDLDS [DLC1] | – | – | 5.52 ± 0.1 | 5.55 ± 0.14
63 | CRRSIRSALGRQRLQDISSLPLPQ [SPSB4] | – | – | 3.03 ± 0.38 | 3.33 ± 0.43
64 | CRYATQLQQIQGLIGGLEAQLSEL [KRT15] | – | – | 2.23 ± 0.066 | 2.33 ± 0.18
65 | CSCQADPRHQGHRVQPVKDTAHDF [TRIM35] | – | – | 3.42 ± 0.31 | 3.56 ± 0.14
66 | CSITGDSSRVIAASYDKTVRAWDL [WDR88] | – | – | 2.57 ± 0.2 | 2.6 ± 0.2
67 | CTRFTDEYQLYEDIGKGAFSVVRR [CAMK2B] | – | – | 2.84 ± 0.35 | 2.85 ± 0.54
68 | DALPGQSKRLAVPCKLEKMRILAH [TLE6] | – | – | 2.39 ± 0.18 | 2.4 ± 0.24
69 | DCILRDTSEDLRLQCDAVNLAFGR [TEKT4] | – | – | 3.4 ± 0.13 | 3.48 ± 0.19

Row | Sequence | protein stability index [1] | protein stability index [2] | protein stability index [3] | protein stability index [4]
70 | DDDDNLPQLKKESELPFVPNYLAN [ANKRD40] | – | – | 4.77 ± 0.12 | 4.84 ± 0.076
71 | DDEQYAWESSAGGSFTVRADHGEP [HSP90AB1] | – | – | 5.14 ± 0.29 | 5.07 ± 0.12
72 | DDISVDSLDFTKKILHTAWHPAEN [PPP2R2C] | – | – | 3.12 ± 0.36 | 3.12 ± 0.49
73 | DENGRPYSPSQYALQYAGDGSVLL [NFE2L1] | – | – | 3.57 ± 0.39 | 3.6 ± 0.34
74 | DENLFTGEDLDELEEELNTLDLEE [ZC3H15] | – | – | 5.18 ± 0.75 | 5.44 ± 0.21
75 | DEQKEEEEEEGEEEELIRIFQEQQ [FAM9B] | – | – | 5.51 ± 0.34 | 5.47 ± 0.29
76 | DFFIVGCEVIFCVFIFYYVVEEIL [PKD2L1] | – | – | 1.92 ± 0.47 | 2 ± 0.3
77 | DFSSGGAAAAAAPAPPPPAGGATA [SNAP91] | – | – | 5.39 ± 0.3 | 5.37 ± 0.15
78 | DGFFYFFHGTRQYKFDPKTKRILT [MMP1] | – | – | 2.14 ± 0.48 | 2.28 ± 0.23
79 | DGLLGDNQIMPKAGLLIIVLAIIA [MAGEA3] | – | – | 3.11 ± 0.91 | 2.46 ± 0.34
80 | DGLRLLGARARGVAMLGVFLVSAV [SOAT2] | – | – | 2.56 ± 0.53 | 2.49 ± 0.38
81 | DGQYLGVAFRGLKGKKLYPVVSAV [SPSB4] | – | – | 2.08 ± 0.38 | 2.51 ± 0.49
82 | DINLSVRKLLNRHNIVFGDYTWTE [TRIP13] | – | – | 2.28 ± 0.29 | 2.22 ± 0.4
83 | DIRAKKIASIADVCESMKEQLLVL [HNF4A] | – | – | 2.5 ± 0.35 | 2.26 ± 0.22
84 | DKNLTEREVFNEIYPVWTYSYLVL [SLC19A2] | – | – | 2.81 ± 0.64 | 2.65 ± 0.46
85 | DLENRCQSLTEDLEFRKSMYEEEI [LMNB1] | – | – | 4.91 ± 0.056 | 4.76 ± 0.13
86 | DLGASSLHVNGESLEMDSDEDDSE [EHMT1] | – | – | 5.52 ± 0.15 | 5.62 ± 0.14
87 | DLIKHQRIHTEEKPYKCQQCDKRF [ZNF75A] | – | – | 2.99 ± 0.23 | 3.31 ± 0.16
88 | DLNGAQIKLREYEAALNSKDAALA [LMNB1] | – | – | 3.5 ± 0.18 | 3.71 ± 0.39
89 | DLRVLVSNASEDTRRLRLAHVGME [SCARA5] | – | – | 2.9 ± 0.17 | 3.15 ± 0.11
